Laboratory results: US20200270346A1 (Merck Sharp & Dohme, published 2020)
Where two headings read alike, the source gives them in different places.

How the values were obtained:
[1] = biological target: T1, human TIGIT expressed on cells (human, UniProt Q495A1 25-244); experiment: cell-based or functional assay
T1 sequence: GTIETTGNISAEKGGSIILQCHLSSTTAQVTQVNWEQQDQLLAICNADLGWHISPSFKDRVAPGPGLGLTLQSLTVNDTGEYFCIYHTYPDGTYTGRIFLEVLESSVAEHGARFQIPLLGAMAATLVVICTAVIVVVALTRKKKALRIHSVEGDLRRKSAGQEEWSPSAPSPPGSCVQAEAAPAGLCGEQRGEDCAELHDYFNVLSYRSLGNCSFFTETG

[2] = biological target: T2, rhesus TIGIT expressed on CHO-K1 cells (rhesus monkey); experiment: cell-based ELISA, panel 'Binding to rhesus TIGIT CHO K1 cells'
T2 construct: also called rhesus TIGIT-CHOK1 cells; Cyno/Rhesus TIGIT
T2 sequence (chain, as listed by the source): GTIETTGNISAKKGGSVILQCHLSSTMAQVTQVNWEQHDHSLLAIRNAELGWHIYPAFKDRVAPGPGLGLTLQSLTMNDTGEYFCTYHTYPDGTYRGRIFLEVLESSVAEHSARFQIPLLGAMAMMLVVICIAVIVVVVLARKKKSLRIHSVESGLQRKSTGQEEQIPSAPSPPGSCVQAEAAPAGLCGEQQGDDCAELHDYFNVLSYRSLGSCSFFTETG

[3] = biological target: T1, human TIGIT expressed on cells; experiment: cell-based ELISA, panel 'Binding to human TIGIT-CHO K1 cells'
[4] = biological target: T1, human TIGIT expressed on cells; experiment: cell-based or functional assay; remark: listed apart in the source
[5] = biological target: T2, rhesus TIGIT expressed on CHO-K1 cells; experiment: cell-based ELISA, panel 'Binding to rhesus TIGIT-CHOK1 cells'
[6] = biological target: T1, human TIGIT expressed on cells; experiment: cell-based ELISA, panel 'Binding to human TIGIT-CHO-K1 cells'
[7] = biological target: T1, human TIGIT expressed on cells; experiment: cell-based ELISA blocking assay: binding of hCD155-hFc to human TIGIT-CHO-K1 cells, antibody titrated
[8] = biological target: T3, Human TIGIT-His (extracellular domain of hTIGIT with a histidine tag) (human, UniProt Q495A1 25-141); experiment: SPR, Biacore T200, antibody captured on anti-rat IgG Fc, TIGIT-His in solution, 1:1 Langmuir fit
T3 construct: also called hTIGIT-His; hTIGIT-HIS
T3 sequence: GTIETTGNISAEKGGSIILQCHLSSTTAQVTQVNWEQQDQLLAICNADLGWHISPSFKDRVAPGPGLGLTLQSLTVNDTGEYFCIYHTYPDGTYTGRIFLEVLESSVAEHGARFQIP
Procedure: (§1) The kinetic binding activity of anti-human TIGIT antibodies 14A6 and 31C6 (made as described in Example 1) and of commercial antibody MBSA43 was measured by surface plasmon resonance using a Biacore T200 system (Biacore, GE Healthcare, Piscataway, N.J.). Approximately 5000 RU of Anti-mouse IgG, GE Healthcare Catalog Number BR-1008-38, or approximately 13,000 RU of Goat Anti-Rat IgG Fc gamma, Fragment Specific, Jackson ImmunoResearch Catalog Number 112-006-071, was immobilized via amine coupling chemistry onto a Series S CM5 sensor chip, catalog number BR-1005-30. Mouse anti-human TIGIT clones, 31C6 and MBSA43, were each injected over the immobilized anti-mouse surfaces at 1 ug/mL for a capture level of 40 RU. Rat anti-human TIGIT clone 14A6 was injected over the immobilized anti-rat surfaces at 1 ug/mL for a capture level of 40 RU. HBS-EP+ buffer (BR-1006-69) was used as the running buffer with a flow rate of 30 μL/min. Varying concentrations of human TIGIT-His protein or TIGIT-Fc protein, ranging from 0.29 nM to 40 nM, at a flow rate of 45 μL/min were injected over the antibody surfaces. Following each Mouse anti-human TIGIT injection cycle for clones 31C6 and MBSA43, the Series S CM5 chip surface was regenerated using one three-minute injection of 10 mM Glycine pH 1.7 at a flow rate of […]. […]

human TIGIT-Fc protein [9] = biological target: T4, human TIGIT-Fc protein (human, UniProt Q495A1 25-141); experiment: SPR, Biacore T200, antibody captured on anti-rat IgG Fc, TIGIT-Fc in solution, 1:1 Langmuir fit
T4 construct: not shown: Fc part
T4 sequence: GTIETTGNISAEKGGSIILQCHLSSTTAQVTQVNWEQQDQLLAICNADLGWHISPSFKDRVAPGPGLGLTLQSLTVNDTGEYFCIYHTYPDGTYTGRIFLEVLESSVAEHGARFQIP
Procedure: as §1

[10] = biological target: T1, human TIGIT expressed on cells; experiment: cell-based ELISA, panel 'Binding to hTIGIT-CHO'
[11] = biological target: T3, Human TIGIT-His (extracellular domain …); experiment: SPR, Biacore T200, antibody captured on anti-mouse IgG, TIGIT-His in solution, 1:1 Langmuir fit
Procedure: as §1

human TIGIT-Fc protein [12] = biological target: T4, human TIGIT-Fc protein; experiment: SPR, Biacore T200, antibody captured on anti-mouse IgG, TIGIT-Fc in solution, 1:1 Langmuir fit
Procedure: as §1

[13] = biological target: T2, rhesus TIGIT expressed on CHO-K1 cells; experiment: cell-based ELISA, panel 'Binding to rhesus TIGIT-CHO'
[14] = biological target: T1, human TIGIT expressed on cells; experiment: cell-based ELISA blocking assay: binding of hCD155-hFc to human TIGIT-CHO-K1 cells, antibody titrated; remark: listed apart in the source

B1: MEB125.31C6.A1.205 VH4/VL1 (antibody, human IgG1, V domains shown)
VH: EVQLVQSGAEVKKPGASVKVSCKASGYTFSSYVMHWVRQAPGQGLEWIGYIDPYNDGAKYAQKFQGRVTLTSDKSTSTVYMELSSLRSEDTAVYYCARGGPYGWYFDVWGQGTTVTVSS
VL: DIQMTQSPSSLSASVGDRVTITCRASEHIYSYLSWYQQKPGKAPKLLIYNAKTLAEGVPSRFSGSGSGTDFTLTISSLQPEDFATYYCQHHFGSPLTFGQGTRLEIK
[1]
  EC50 of IL-2 rescue in hTIGIT-Jurkat / hCD155-JY co-culture: 0.62 µg/mL

B2: MEB125.31C6.A1.205 VH5/VL3 (antibody, human IgG1, V domains shown)
VH: EVQLVQSGAEVKKPGSSVKVSCKASGYTFSSYVMHWVRQAPGQGLEWIGYIDPYNDGAKYAQKFQGRVTLTSDKSTSTAYMELSSLRSEDTAVYYCARGGPYGWYFDVWGQGTTVTVSS
VL: DIQMTQSPSSLSASVGDRVTITCRASEHIYSYLSWYQQKPGKVPKLLIYNAKTLAEGVPSRFSGSGSGTDFTLTISSLQPEDVATYYCQHHFGSPLTFGQGTRLEIK
[1]
  EC50 of IL-2 rescue in hTIGIT-Jurkat / hCD155-JY co-culture: 1.2 µg/mL

B3: MEB125.31C6.A1.205 VH5/VL4 (antibody, human IgG1, V domains shown)
VH: EVQLVQSGAEVKKPGSSVKVSCKASGYTFSSYVMHWVRQAPGQGLEWIGYIDPYNDGAKYAQKFQGRVTLTSDKSTSTAYMELSSLRSEDTAVYYCARGGPYGWYFDVWGQGTTVTVSS
VL: DIQMTQSPSSLSASVGDRVTITCRASEHIYSYLSWYQQKPGKVPKLLIYNAKTLAEGVPSRFSGSGSGTQFTLTISSLQPEDVATYYCQHHFGSPLTFGQGTRLEIK
[1]
  EC50 of IL-2 rescue in hTIGIT-Jurkat / hCD155-JY co-culture: 1.2 µg/mL

B4: 28H5 (mouse anti-human TIGIT antibody, clone TC167.28H5.H5) (antibody, mouse IgG1, V domains shown)
VH: DVQLQESGPGLVKPSQSLSLTCTVTGYSITSDYAWNWIRQFPGNKLEWMGYISNSGSASYNPSLKSRISITRDTSKNQFFLQLNSVTTEDTATYYCATLIYYDYGGAMNFWGQGTSVTVSS
VL: DIVMTQSHKFMSTSVGDRVSITCKASQGVSTTVAWYQQKPGQSPKLLIYSASYRYTGVPDRFTGSGSGTDFTFTISSVQSEDLAVYYCQHYYSTPWTFGGGTKLEIK
notes: Mouse IgG1/kappa
[2]
  EC50 (read off the curve): ~0.05 µg/mL
[3]
  EC50 (read off the curve): ~100 µg/mL
[4]
  EC50 of IL-2 rescue in hTIGIT-Jurkat / THP-1 co-culture: 0.24 µg/mL
  increase in IFNγ production, BC4-clone 49 T cells with JY-hCD155 cells: ~2 fold

B5: 14A6 (rat anti-human TIGIT antibody, clone LB155.14A6.G2.A8) (antibody, V domains shown)
VH: EVQLQESGPGLVKPSQSLSLTCSVTGSSIASDYWGWIRKFPGNKMEWMGFITYSGSTSYNPSLKSRISITRDTSKNQFFLQLHSVTTDDTATYSCARMPSFITLASLSTWEGYFDFWGPGTMVTVSS
VL: DIQMTQSPSLLSASVGDRVTLNCKASQSIHKNLAWYQQKLGEAPKFLIYYANSLQTGIPSRFSGSGSGTDFTLTISGLQPEDVATYFCQQYYSGWTFGGGTKVELK
notes: also called 14A6 (rIgG2a/K)
[5]
  EC50 (read off the curve): ~0.2 µg/mL
[6]
  EC50 (read off the curve): ~0.1 µg/mL
[7]
  IC50 (read off the curve): ~0.1 µg/mL
[4]
  EC50 of IL-2 rescue in hTIGIT-Jurkat / THP-1 co-culture: 0.19 µg/mL
  IL-2 rescue relative to MBSA43 (10 µg/ml): 82%
  increase in IFNγ production, BC4-clone 49 T cells with JY-hCD155 cells: ~2 fold
[8]
  Kd: 3.09 pM
Human TIGIT-Fc protein [9]
  Kd: 3.12 pM

B6: 31C6 (mouse anti-human TIGIT antibody, clone MEB125.31C6.A1.205) (antibody, mouse IgG1, V domains shown)
VH: EVQLQQSGPELVKPGSSVKMSCKASGYTFSSYVMHWVKQKPGQGLEWIGYIDPYNDGAKYNEKFKGKATLTSDKSSSTAYMELSSLTSEDSAVYYCARGGPYGWYFDVWGAGTTVTVSS
VL: DIQMTQSPASLSASVGETVTITCRASEHIYSYLSWYQQKQGKSPQLLVYNAKTLAEGVPSRFSGSGSGTQFSLKINSLQPEDFGTYYCQHHFGSPLTFGAGTTLELK
notes: Mouse IgG1/kappa; also called 31C6 (mIgG1/K); MEB125.31C6.A1.205 mIgG1
[10]
  EC50 (read off the curve): ~0.03 µg/mL
[11]
  Kd: 34.4 pM
Human TIGIT-Fc protein [12]
  Kd: 10.9 pM
[13]
  EC50 (read off the curve): ~0.06 µg/mL
[4]
  EC50 of IL-2 rescue in hTIGIT-Jurkat / THP-1 co-culture: 0.14 µg/mL
  EC50 of IL-2 rescue in hTIGIT-Jurkat / hCD155-JY co-culture: 0.73 µg/mL
  IL-2 rescue relative to MBSA43 (10 µg/ml): 118%
  increase in IFNγ production, BC4-clone 49 T cells with JY-hCD155 cells: ~2 fold
[14]
  IC50 (read off the curve): ~0.9 µg/mL

B7: Mouse human chimera MEB125.31C6.A1.205 IgG1 (antibody, V domains shown)
VH: EVQLQQSGPELVKPGSSVKMSCKASGYTFSSYVMHWVKQKPGQGLEWIGYIDPYNDGAKYNEKFKGKATLTSDKSSSTAYMELSSLTSEDSAVYYCARGGPYGWYFDVWGAGTTVTVSS
VL: DIQMTQSPASLSASVGETVTITCRASEHIYSYLSWYQQKQGKSPQLLVYNAKTLAEGVPSRFSGSGSGTQFSLKINSLQPEDFGTYYCQHHFGSPLTFGAGTTLELK
[4]
  EC50 of IL-2 rescue in hTIGIT-Jurkat / hCD155-JY co-culture: 0.91 µg/mL
